We go through eight molecules from patent US20230193513A1 (TWIST BIOSCIENCE, published 2023).

Common to all, as to assay: cell-based or functional assay
The target in test [1] is T1, glucagon-like peptide-1 receptor (GLP1R) (Homo sapiens (Human), UniProt P43220 24-463).
Test [2] concerns the target T1, glucagon-like peptide-1 receptor (GLP1R). This is another data set of the same source.
Test [3] shares this target. The source holds these as a separate data set.
Test [4] shares this target. This is another data set of the same source.

T1 sequence (P43220 24-463): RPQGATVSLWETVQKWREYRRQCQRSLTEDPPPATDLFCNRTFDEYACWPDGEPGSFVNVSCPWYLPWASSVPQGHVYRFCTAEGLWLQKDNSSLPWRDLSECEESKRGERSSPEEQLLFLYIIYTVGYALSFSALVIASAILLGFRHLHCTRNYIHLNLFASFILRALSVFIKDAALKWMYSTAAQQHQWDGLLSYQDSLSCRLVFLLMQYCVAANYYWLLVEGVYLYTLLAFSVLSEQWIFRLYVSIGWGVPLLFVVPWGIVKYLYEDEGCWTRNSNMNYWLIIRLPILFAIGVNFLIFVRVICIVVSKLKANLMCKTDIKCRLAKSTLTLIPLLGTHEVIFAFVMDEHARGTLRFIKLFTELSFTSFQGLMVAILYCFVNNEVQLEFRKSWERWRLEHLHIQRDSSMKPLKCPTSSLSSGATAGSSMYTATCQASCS

B1: GLP1R-240 (antibody, human IgG2, lambda)
heavy: QVQLVQSGAEVKKPGSSVKVSCKASGGTFNNYGISWVRQAPGQGLEWMGGIIPVFGTANYAQKFQGRVTITADESTSTAYMELSSLRSEDTAVYYCARDMYYDFFGLGTFTSDVSSYLEGQAAKEFIAWLVKGVSPEVVPADDAFDIWGQGTLVTVSSASASTKGPSVFPLAPCSRSTSESTAALGCLVKDYFPEPVTVSWNSGALTSGVHTFPAVLQSSGLYSLSSVVTVPSSNFGTQTYTCNVDHKPSNTKVDKTVERKCCVECPPCPAPPVAGPSVFLFPPKPKDTLMISRTPEVTCVVVDVSHEDPEVQFNWYVDGVEVHNAKTKPREEQFNSTFRVVSVLTVVHQDWLNGKEYKCKVSNKGLPAPIEKTISKTKGQPREPQVYTLPPSREEMTKNQVSLTCLVKGFYPSDIAVEWESNGQPENNYKTTPPMLDSDGSFFLYSKLTVDKSRWQQGNVFSCSVMHEALHNHYTQKSLSLSPG
light: QSVLTQPPSVSAAPGQKVTISCSGSSSSIGNNYVSWYQQLPGTAPKLLIYANNKRPSGIPDRFSGSKSGTSATLGITGLQTGDEADYYCATWSSSPRGWVFGGGTKLTVLGQPKAAPSVTLFPPSSEELQANKATLVCLISDFYPGAVTVAWKADSSPVKAGVETTTPSKQSNNKYAASSYLSLTPEQWKSHRSYSCQVTHEGSTVEKTVAPTECS
For B1, the “EC50 (nM) of GLP1 (7-36) in the cAMP assay after 100 nM IgG” value (from here on “EC50 (nM) of GLP1 … after 100 nM IgG”) in test [1] amounted to 0.0654 nM.

B2: GLP1R-59-2 (antibody)
chain 1: QVQLVESGGGVVQPGRSLRLSCAASGFTFSNYGMSWVRQAPGKGLEWVAVISYDAGNKYYADSVKGRFTISRDNSKNTLYLQMNSLRAEDTAVYYCARDMYYDFETVVEGIQWYEALKAGKLGEVVPADDAFDIWGQGTLVTVSSASTKGPSVFPLAPCSRSTSESTAALGCLVKDYFPEPVTVSWNSGALTSGVHTFPAVLQSSGLYSLSSVVTVPSSNFGTQTYTCNVDHKPSNTKVDKTVERKCCVECPPCPAPPVAGPSVFLFPPKPKDTLMISRTPEVTCVVVDVSHEDPEVQFNWYVDGVEVHNAKTKPREEQFNSTFRVVSVLTVVHQDWLNGKEYKCKVSNKGLPAPIEKTISKTKGQPREPQVYTLPPSREEMTKNQVSLTCLVKGFYPSDIAVEWESNGQPENNYKTTPPMLDSDGSFFLYSKLTVDKSRWQQGNVFSCSVMHEALHNHYTQKSLSLSPGK
chain 2: HGEGTFTSDVSSYLEEQAAKEFIAWLVKGGGGGGGSGGGGSGGGGSQSALTQPASVSGSPGQSITISCTGTSNDIGTYNYVSWYQQHPGKAPKLMIYDVSGRPSGVSNRFSGSKSGNTASLTISGLQAEDEADYYCSSYTTSSTEVFGGGTKLTVLGQPKAAPSVTLFPPSSEELQANKATLVCLISDFYPGAVTVAWKADSSPVKAGVETTTPSKQSNNKYAASSYLSLTPEQWKSHRSYSCQVTHEGSTVEKTVAPTECS
Take B2: the “EC50 (nM) of the IgG as agonist, functional assay on GLP-1R overexpressing cells” value in test [2] amounted to 0.842 nM.

B3: GLP1R-238 (antibody, human IgG2, lambda, V domains shown)
VH: QVQLVQSGAEVKKPGSSVKVSCKASGGSFSSHAISWVRQAPGQGLEWMGGIIPIFGAPNYAQKFQGRVTITADESTSTAYMELSSLRSEDTAVYYCARANQHFSQAGRAARVPGPSSSLGPRGYHYYGMDVWGQGTLVTVSS
VL: QSVLTQPPSVSAAPGQKVTISCSGSTSNIANNYVSWYQQLPGTAPKLLIYANNRRPSGIPDRFSGSKSGTSATLGITGLQTGDEADYYCGAWDVRLDVGVFGGGTKLTVLG
As to B3, the “EC50 (nM) of GLP1 … after 100 nM IgG” value in test [1] is 0.0879 nM.

B4: GLP1R-243 (antibody, human IgG2, lambda, V domains shown)
VH: QVQLVQSGAEVKKPGSSVKVSCKASGGTFSTYGINWVRQAPGQGLEWMGGIIPIFGTANYAQKFQGRVTITADESTSTAYMELSSLRSEDTAVYYCARANQHFFGKGDNLAARDFINWLIQTKITDGSNPGYHYYGMDVWGQGTLVTVSS
VL: QSVLTQPPSVSAAPGQKVTISCSGSRSNIGKNYVSWYQQLPGTAPKLLIYENNERPSGIPDRFSGSKSGTSATLGITGLQTGDEADYYCSSYTTSNTQVFGGGTKLTVLG
Take B4: the “EC50 (nM) of GLP1 … after 100 nM IgG” value in test [1] came to 0.128 nM.

B5: GLP1R-244 (antibody, human IgG2, lambda, V domains shown)
VH: QVQLVQSGAEVKKPGSSVKVSCKASGGTFSSYAISWVRQAPGQGLEWMGGIIPIFGTANYAQKFQGRVTITADESTSTAYMELSSLRSEDTAVYYCARANQHFAATGAGEGQAAKEFIAWLVKGRVEIGYHYYGMDVWGQGTLVTVSS
VL: QSVLTQPPSVSAAPGQKVTISCSGSSSNIGNNVVSWYQQLPGTAPKLLIYDNDKRRSGIPDRFSGSKSGTSATLGITGLQTGDEADYYCGSWDTSLSVWVFGGGTKLTVLG
In the case of B5, the “EC50 (nM) of GLP1 … after 100 nM IgG” value in test [1] amounted to 0.154 nM.

B6: GLP1R-239 (antibody, human IgG2, lambda)
heavy: QVQLVESGGGVVQPGRSLRLSCAASGFDFSNYGMHWVRQAPGKGLEWVADISYEGSNKYYADSVKGRFTISRDNSKNTLYLQMNSLRAEDTAVYYCAKHMSMQSQGLDNLAARDFINWLIQTKITDGFELSRADLVGDAFDVWGQGTLVTVSSASASTKGPSVFPLAPCSRSTSESTAALGCLVKDYFPEPVTVSWNSGALTSGVHTFPAVLQSSGLYSLSSVVTVPSSNFGTQTYTCNVDHKPSNTKVDKTVERKCCVECPPCPAPPVAGPSVFLFPPKPKDTLMISRTPEVTCVVVDVSHEDPEVQFNWYVDGVEVHNAKTKPREEQFNSTFRVVSVLTVVHQDWLNGKEYKCKVSNKGLPAPIEKTISKTKGQPREPQVYTLPPSREEMTKNQVSLTCLVKGFYPSDIAVEWESNGQPENNYKTTPPMLDSDGSFFLYSKLTVDKSRWQQGNVFSCSVMHEALHNHYTQKSLSLSPG
light: QSVLTQPPSVSAAPGQKVTISCSGSTSNIEKNYVSWYQQLPGTAPKLLIYGNDQRPSGIPDRFSGSKSGTSATLGITGLQTGDEADYYCGTWENRLSAVVFGGGTKLTVLGQPKAAPSVTLFPPSSEELQANKATLVCLISDFYPGAVTVAWKADSSPVKAGVETTTPSKQSNNKYAASSYLSLTPEQWKSHRSYSCQVTHEGSTVEKTVAPTECS
Take B6: the “EC50 (nM) of GLP1 … after 100 nM IgG” value in test [1] is 0.0799 nM.

B7: GLP1R-242 (antibody, human IgG2, lambda)
heavy: QVQLVQSGAEVKKPGSSVKVSCKASGGTFSSYEISWVRQAPGQGLEWMGGIIPILGIANYAQKFQGRVTITADESTSTAYMELSSLRSEDTAVYYCAKHMSMQADTGTFTSDVSSYLEGQAAKEFIAWLVKGEFSSRADLVGDAFDVWGQGTLVTVSSASASTKGPSVFPLAPCSRSTSESTAALGCLVKDYFPEPVTVSWNSGALTSGVHTFPAVLQSSGLYSLSSVVTVPSSNFGTQTYTCNVDHKPSNTKVDKTVERKCCVECPPCPAPPVAGPSVFLFPPKPKDTLMISRTPEVTCVVVDVSHEDPEVQFNWYVDGVEVHNAKTKPREEQFNSTFRVVSVLTVVHQDWLNGKEYKCKVSNKGLPAPIEKTISKTKGQPREPQVYTLPPSREEMTKNQVSLTCLVKGFYPSDIAVEWESNGQPENNYKTTPPMLDSDGSFFLYSKLTVDKSRWQQGNVFSCSVMHEALHNHYTQKSLSLSPG
light: QSVLTQPPSVSAAPGQKVTISCSGSSSNIENNDVSWYQQLPGTAPKLLIYGNDQRPSGIPDRFSGSKSGTSATLGITGLQTGDEADYYCGTWDNTLSAGVFGGGTKLTVLGQPKAAPSVTLFPPSSEELQANKATLVCLISDFYPGAVTVAWKADSSPVKAGVETTTPSKQSNNKYAASSYLSLTPEQWKSHRSYSCQVTHEGSTVEKTVAPTECS
As for B7, the “EC50 (nM) of GLP1 … after 100 nM IgG” value in test [1] is about 0.0653 nM.

B8: GLP1R-241 (antibody, human IgG2, lambda)
heavy: QVQLVQSGAEVKKPGSSVKVSCKASGGTFSDYAISWVRQAPGQGLEWMGGIIPIFGTTNYAQKFQGRVTITADESTSTAYMELSSLRSEDTAVYYCAKHMSMQGSVAGGTFTSDVSSYLEGQAAKEFIAWLVKGGPSFIRADLVGDAFDVWGQGTLVTVSSASASTKGPSVFPLAPCSRSTSESTAALGCLVKDYFPEPVTVSWNSGALTSGVHTFPAVLQSSGLYSLSSVVTVPSSNFGTQTYTCNVDHKPSNTKVDKTVERKCCVECPPCPAPPVAGPSVFLFPPKPKDTLMISRTPEVTCVVVDVSHEDPEVQFNWYVDGVEVHNAKTKPREEQFNSTFRVVSVLTVVHQDWLNGKEYKCKVSNKGLPAPIEKTISKTKGQPREPQVYTLPPSREEMTKNQVSLTCLVKGFYPSDIAVEWESNGQPENNYKTTPPMLDSDGSFFLYSKLTVDKSRWQQGNVFSCSVMHEALHNHYTQKSLSLSPG
light: QSVLTQPPSVSAAPGQKVTISCSGISSNIGNNYVSWYQQLPGTAPKLLIYDDDQRPSGIPDRFSGSKSGTSATLGITGLQTGDEADYYCGTWDNILSAAVFGGGTKLTVLGQPKAAPSVTLFPPSSEELQANKATLVCLISDFYPGAVTVAWKADSSPVKAGVETTTPSKQSNNKYAASSYLSLTPEQWKSHRSYSCQVTHEGSTVEKTVAPTECS
B8: the “fold difference of the EC50 against no antibody” value in test [3] amounted to 1.7 fold. Moreover, the “EC50 (nM) of GLP1 … after 100 nM IgG” value in test [1] was found to be 0.103 nM. The “EC50 (nM) of GLP1 (7-36)-induced signaling with GLP1R IgG (+100 nM)” value in test [4] came out at 0.103 nM.
